From patent publication US20240076389A1 (NATIONAL RESEARCH COUNCIL OF CANADA, published 2024) come the findings set out here.

The test concerns the target T1, recombinant human AXL extracellular domain, C-terminally His8-tagged (rhAXL-ECD) (human, UniProt P30530 26-451).
T1 construct: Made in CHO cells; also called (rh)AXL-ECD His8; human AXL ECD
T1 sequence: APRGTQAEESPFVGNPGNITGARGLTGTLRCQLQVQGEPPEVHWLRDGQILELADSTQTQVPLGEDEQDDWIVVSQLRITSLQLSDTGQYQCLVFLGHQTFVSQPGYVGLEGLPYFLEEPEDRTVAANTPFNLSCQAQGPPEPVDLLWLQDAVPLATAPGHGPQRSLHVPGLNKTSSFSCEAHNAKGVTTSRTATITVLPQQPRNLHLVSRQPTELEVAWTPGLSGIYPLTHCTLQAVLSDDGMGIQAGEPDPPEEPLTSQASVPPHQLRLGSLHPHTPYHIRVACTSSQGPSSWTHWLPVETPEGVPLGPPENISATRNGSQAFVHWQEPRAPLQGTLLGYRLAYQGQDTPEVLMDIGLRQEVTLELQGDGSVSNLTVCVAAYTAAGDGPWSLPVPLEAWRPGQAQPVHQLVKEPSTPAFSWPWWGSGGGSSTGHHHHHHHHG
The experiment in a line: SPR, steady-state analysis (format not stated). As for the experimental part:
For VH Hs and VHH-Fcs, binding to human and cynomolgus AXL ECD was assessed using either a Biacore T200 instrument or a Biacore 3000 instrument. Either human AXL ECD or anti-human Fc antibody was immobilized on a research-grade CM5 series S sensor chip (T200, rhAXL ECD) or a C1 sensor chip (3000, anti-human Fc) using amine coupling in acetate buffer. VHH-Fcs were captured on anti-human Fc surfaces. Either monomeric VHHs (for rhAXL ECD surfaces) or human and cyno AXL ECD (for VHH-Fc surfaces) were flowed over the surfaces at different concentration ranges. Running buffers were HBS-EP (3000) and HBS-EP+(T200). Flow rates were 10-40 ul/min. All binding studies were performed at 25° C. Surfaces were regenerated using 10 mM glycine, pH 1.5.
For orientation: Surface plasmon resonance follows binding to a sensor surface in real time, without labels.

B1: NRC-sdAb002 (VHH monomer) (VHH)
VHH: QVQLVDSGGGLVQAGGSLRLSCATSTRTVSSAVMAWFRQAPEKVRDFVGFITNSGNILYDDSVKGRFTISRDNAQNTVYLQMNSLKPEDTAVYYCAAKWSFSSGYGDLRRAAMYDYWGQGTQVTVSS
notes: Llama VHH monomer; not shown: 6xHis and Myc tags
In the case of B1, the Kd (commonly the constant that tells how readily two partners part at equilibrium) was 96 nM.
